Laboratory results as given in US20240294618A1 (CENTIVAX, published 2024).
Residue numbers refer to the chain shown, from its start. Values joined by “and” are separate entries in the source; they are usually repeats but may differ in a detail not shown here. Identical values can stand only once. Like-named read-outs stand apart in the source and are kept apart here.

Tests used:
[1] = target: T1, long-neurotoxin-cobra (naja) (alpha-neurotoxin), recombinant, Cobra-Avi-His (cape cobra (Naja nivea), UniProt P01390 1-71)
T1 sequence: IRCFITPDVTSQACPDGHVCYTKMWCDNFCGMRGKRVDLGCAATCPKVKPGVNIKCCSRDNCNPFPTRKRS

[2] = target: T2, long-neurotoxin-mamba (dendroapsis) (alpha-elapitoxin-dpp2d), recombinant, Mamba-Avi-His (black mamba (Dendroaspis polylepsis), UniProt C0HJD7 1-72)
T2 sequence: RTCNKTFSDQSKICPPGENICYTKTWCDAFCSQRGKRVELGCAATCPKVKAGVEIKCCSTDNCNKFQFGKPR

[3] = target: T3, long-neurotoxin-taipan, recombinant, Taipan-Avi-His (coastal taipan (Oxyuranus scutatellus), UniProt A8HDK9 22-92)
T3 sequence: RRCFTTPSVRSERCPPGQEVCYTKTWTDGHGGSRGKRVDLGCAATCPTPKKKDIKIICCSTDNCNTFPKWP

[4] = target: T3, long-neurotoxin-taipan, recombinant, …; remark: listed apart in the source
[5] = target: T3, long-neurotoxin-taipan, recombinant, …; assay: off-rate kinetics; platform not named
[6] = target: T2, long-neurotoxin-mamba (dendroapsis) …; assay: off-rate kinetics; platform not named
[7] = target: T4, long-neurotoxin-krait (bungarus) (alpha-bungarotoxin) (krait (Bungarus caeruleus), UniProt D2N116 3-76); assay: off-rate kinetics; platform not named
T4 construct: also called Krait LNX; long-neurotoxin from Krait
T4 sequence: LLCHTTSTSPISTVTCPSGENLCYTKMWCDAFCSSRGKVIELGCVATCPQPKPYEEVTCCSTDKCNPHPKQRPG

B1: SNEURO_P01_B11 (antibody, V domains shown)
VH: QVQLQESGGGLVQPGGSLRLSCAASGFTFSNFDMHWVRQSPGKGLEWVSGLDHSGGAHYAGSVKGRFTISREDAKNSLDLQMNNLRVDDTAVYFCVRGTLYHYTSGSYYSDAFDIWGQGTLVTVSS
VL: DIVMTQSPSSLSASVGDRVTITCRASQGISDNLNWYQQKPGKAPKLLIYAASTLQSGVPSRLSGSGSGTDFTLTISSLQPEDFATYYCQQANSFPLTFGGGTKVEIKR
- Kd [1]: 0.41 nM
- koff [1]: 9e-05 s⁻¹
- kon [1]: 220000 M⁻¹ s⁻¹
- Kd [2]: 2.1 nM
- koff [2]: 0.00038 s⁻¹
- kon [2]: 180000 M⁻¹ s⁻¹
- Kd [3]: 35 nM
- koff [3]: 0.0052 s⁻¹
- kon [3]: 150000 M⁻¹ s⁻¹

B2: SNEURO_P01_D09 (antibody, V domains shown)
VH: B1 VH with Q1E, Q5V, L11F
VL: EIVLTQSPSSLSASVGDRVTITCQASQDISNYLNWYQQKPGKAPKLLIYAASSLESGVPSRFSGSGSGTDFTLTISSQQPEDFATYYCQQANSFPYTFGQGTKVEIKR
- Kd [3]: 1.5 nM
- Kd [4]: 0.49 nM and 0.96 nM

B3: SNEURO_P01_D09 VK L3 NS->NT (antibody, V domains shown)
VH: B1 VH with Q1E, Q5V, L11F
VL: B2 VL with S93T
- koff [5]: 0.000769 s⁻¹

B4: SNEURO_P01_D09 VK L3 NS->QS (antibody, V domains shown)
VH: B1 VH with Q1E, Q5V, L11F
VL: B2 VL with N92Q
- koff [5]: 0.000304 s⁻¹

B5: SNEURO_P01_D09 FW germlined (antibody, V domains shown)
VH: B1 VH with Q1E, Q5V, S40A, P41T, D73N, D79Y, N84S, V87A, D88G, F94Y
VL: DIQMTQSPSSLSASVGDRVTITCQASQDISNYLNWYQQKPGKAPKLLIYAASSLESGVPSRFSGSGSGTDFTLTISSLQPEDFATYYCQQANSFPYTFGQGTKVEIK
- koff [6]: 0.000304 s⁻¹
- koff [5]: 0.000366 s⁻¹

B6: SNEURO_P01_D09 VH germlined (antibody, V domains shown)
VH: B1 VH with Q1E, Q5V, S40A, P41T, D73N, D79Y, N84S, V87A, D88G, F94Y
VL: B5 VL with D1E, Q3V, M4L, L78Q
- koff [6]: 8.54e-05 s⁻¹
- koff [5]: 0.000488 s⁻¹

B7: SNEURO_P01_D09 VK germlined (antibody, V domains shown)
VH: B1 VH with Q1E, Q5V, L11F
VL: B5 VL
- koff [7]: 5.59e-05 s⁻¹
- koff [6]: 6.95e-05 s⁻¹
- koff [5]: 0.000392 s⁻¹
